Assay: soluble on expression in E. coli; label from the status in PepcDB or PDB records
For “GPVGYGAATTGGGNKVPVNVATFEAMQSAIDSYSGSGGLVLNYTGKFDFGTIKDVCAQWKLPAKTVQIKNKSDVTIKGANGSAANFGIRVVGNAHNVIIQNMTIGLLQGGEDADSISLEGNSSGEPSKIWVDHNTVFASLTKCSGAGDASFDGGIDMKKGVHHVTVSYNYVYNYQKVALNGYSDSDTKNSAARTTYHHNRFENVESRVPLQRFGLSHIYNNYFNNVTTSGINVRMGGIAKIESNYFENIKNPVTSRDSSEIGYWDLINNYVGSGITWGTPDGSKPYANATNWISTKVFPESLGYIYTVTPAAQVKAKVIATAGAGKNLAE”, the “soluble on expression in E. coli” value was “soluble”. With “GQGVYTYEDGGVLQGTYVDGELNGPAQEYDTDGRLIFKGQYKDNIRHGVCWIYYPDGGSLVGEVNEDGEMTGEKIAYVYPDERTALYGKFIDGEMIEGKLATLMSTEEGRPHFELMPGNSVYHFDKSTSSCISTNALLPDPYESERVYVAESLISSAGEGLFSKVAVGPNTVMSFYNGVRITHQEVDSRDWALNGNTLSLDEETVIDVPEPYNHVSKYCASLGHKANHSFTPNCIYDMFVHPRFGPIKCIRTLRAVEADEELTVAYGYDHSPPGKSGPEAPEWYQVELKAFQATQQK” the “soluble on expression in E. coli” value was “soluble”. In the case of “GQSRERLVKWLQDAYAMEKEAETMMAAMASRIEHYPELKRRIEQHVEETQQQSAGVQRCLELLNGSIPTAKGMLSSVLASMHAAGNSMMTDEVTKGVGISYAFEHLEIASYRALVVAARSAGEQEVAQICEDILQQEIEMAEWLIEHQEAIVVAFLEREQLEGVGS”, the “soluble on expression in E. coli” value is reported as “soluble”. With “GREPADMVLKGGRFFDLVTGELVASDIAICGDTVVGTCGDYKGRHEIDISGKIVVPGFIDTHLHIESSLVTPHEFDRCVLPYGVTTAICDPHEIANVLGAEGLQFFLDSAMETIMDIRVQLSSCVPATHLETSGADLPIEKLLPFRNHPKVIGLAEFMNFPGVIHKDPVCMAKLEAFQGQHIDGHAPLLSGAALNGYLAAGIRTEHECTSAAEALEKIRKGMHILVREGSVSKDLHALMPIITERLSPYLALCTDDRNPLDIAEQGHLDYMIRTAIASGVEPLAIYRAASISAAKAFGLRDRGLVAPGWRADLVVIDTLQNCKASMVLSGGRLVDDALFATRKPVAPVGLDSVKARPVLASHFGVPVTEGETPVMGVLPGKIITEHRRYKLPTDGNQTTVDLENDIIKVAVIERHGKNGNHANGFVQGFGLKKGAIASTVGHDSHNICVVGVSEDDMALAANRLGDIKGGFVVVEDGRVTGEIALPVAGLMSLEPYETVRDTLHTLRKAAYALGTTLEEPFLQVAFLPLPVIPHLKISDMGMVDVDRFA” the “soluble on expression in E. coli” value was “not soluble”. For “GSESKCPEELANYCDMLLRKTPLSKKLTSEEIEAKLKEVLKKLKYVQNKDVFMRYHKAHLTRRLILDISADSEIEENMVEWLREVGMPADYVNKLARMFQDIKVSEDLNQAFKEMHKNNKLALPADSVNIKILNAGAWSRSSEKVFVSLPTELEDLIPEVEEFYKKNHSGRKLHWHHLMSNGIITFKNEVGQYDLEVTTFQLAVLFAWNQRPREKISFENLKLATELPDAELRRTLWSLVAFPKLKRQVLLYEPQVNSPKDFTEGTLFSVNQEFSLIKNAKVQKRGKINLIGRLQLTTERMREEENEGIVQLRILRTQEAIIQIMKMRKKISNAQLQTELVEILKNMFLPQKKMIKEQIEWLIEHKYIRRDESDINTFIYMA”, the “soluble on expression in E. coli” value was “soluble”. In the case of “GSFTMSYCRQEGKDRIIFVTKEDHETPSSAELVADDPNDPYEEHGLILPNGNINWNCPCLGGMASGPCGEQFKSAFSCFHYSTEEIKGSDCVDQFRAMQECMQKYPDLYPQEDEDEEEEREKKPAEQAEETAPIEATATKEEEGSS”, the “soluble on expression in E. coli” value is reported as “soluble”. In the case of “GSGPTYCWNEANNPGGPNRCSNNKQCDGARTCSSSGFCQGTSRKPDPGPKGPTYCWDEAKNPGGPNRCSNSKQCDGARTCSSSGFCQGTAGHAAA”, the “soluble on expression in E. coli” value is reported as “soluble”. In the case of “GSHHHHHHGSHMDEKLLKTIAESKYLVALTGAGVSAESGIPTFRGKDGLWNRYRPEELANPQAFAKDPEKVWKWYAWRMEKVFNAQPNKAHQAFAELERLGVLKCLITQNVDDLHERAGSRNVIHLHGSLRVVRCTSCNNSFEVESAPKIPPLPKCDKCGSLLRPGVVWFGEMLPPDVLDRAMREVERADVIIVAGTSAVVQPAASLPLIVKQRGGAIIEINPDETPLTPIADYSLRGKAGEVMDELVRHVRKALS”, the “soluble on expression in E. coli” value is reported as “soluble”. For “GSHMAAQSGNDAAEVALYERLLQLRVLPGASDVHDVRFVFGDDSRCWIEVAMHGDHVIGNSHPALDPKSRATLEHVLTVQGDLAAFLVVARDMLLASL”, the “soluble on expression in E. coli” value was “soluble”. With “GSHMASFNGVSEAELLTKTLPDILTFNLDIVIIGINPGLMAAYKGHHYPGPGNHFWKCLFMSGLSEVQLNHMDDHTLPGKYGIGFTNMVERTTPGSKDLSSKEFREGGRILVQKLQKYQPRIAVFNGKCIYEIFSKEVFGVKVKNLEFGLQPHKIPDTETLCYVMPSSSARCAQFPRAQDKVHYYIKLKDLRDQLKGIERNMDV” the “soluble on expression in E. coli” value was “soluble”. For “GSHMLEDPLRVSPMIREFVQSIDDREWQTQLFALLQKQTYNQVEVDLFELMCKVLDQNLFSQVDWARNTVFFKDLKVDDQMKLLQHSWSDMLVLDHLHHRIHNGLPDETQLNNGQVFNLMSLGLLGVPQLGDYFNELQNKLQDLKFDMGDYVCMKFLILLNPSVRGIVNRKTVSEGHDNVQAALLDYTLTCYPSVNDKFRGLVNILPEIHAMAVRGEDHLYTKHCAGSAPTQTLLMEMLHAKR”, the “soluble on expression in E. coli” value was “soluble”. For “GSHMSEWKARRFWASVGIHKEEGGWAVLLDERPLRTPGKQPLRLPTEALALAIAEEWQAVQEVIDPNAMPLTRSANSAIEKVAPQFDAVAAMLGDYGGTDLLSYRADAPEALVRAQAEGWDPLIDWAATELRAPLRITHGVIPVPQDPVVLLKLRAEVASLDPFGLTALHDLVTLPGSLILGLAVIRGRIDAPTAHALSRIDEEFQAERWGRDEEAEAQAASRLAAMRDSERFWHLTRG”, the “soluble on expression in E. coli” value was “soluble”. With “GSHMSHLDNTMAIRLLPLPVRAQLCAHLDALDVWQQLATAVKLYPDQVEQISSQKQRGRSASNEFLNIWGGQYNHTVQTLFALFKKLKLHNAMRLIKDYVSEDLHKYI” the “soluble on expression in E. coli” value was “soluble”. In the case of “GSHMSQLYASLFYQRDVTEIFSDRALVSYMVEAEVALAQAQAQVGVIPQSAATVIQRAAKTAIDKIDFDALATATGLAGNIAIPFVKQLTAIVKDADEDAARYVHWGATSQDILDTACILQCRDALAIVQNQVQQCYETALSQAQTYRHQVMMGRTWLQQALPITLGHKLARWASAFKRDLDRINAIKARVLVAQLGGAVGSLASLQDQGSIVVEAYAKQLKLGQTACTWHGERDRIVEIASVLGIITGNVGKMARDWSLMMQTEIAEVFEPTAKGRGGSSTMPHKRNPVAAASVLAAANRVPALMSSIYQSMVQEHERSLGAWHAEWLSLPEIFQLTAGALERTLDVLKGMEVNAENMHQNIECTHGLIMAEAVMMALAPHMGRLNAHHVVEAACKTAVAEQKHLKDIISQVDEVKQYFNPSQLDEIFKPESYLGNIQDQIDAVLQEAKGEAK”, the “soluble on expression in E. coli” value is reported as “soluble”. With “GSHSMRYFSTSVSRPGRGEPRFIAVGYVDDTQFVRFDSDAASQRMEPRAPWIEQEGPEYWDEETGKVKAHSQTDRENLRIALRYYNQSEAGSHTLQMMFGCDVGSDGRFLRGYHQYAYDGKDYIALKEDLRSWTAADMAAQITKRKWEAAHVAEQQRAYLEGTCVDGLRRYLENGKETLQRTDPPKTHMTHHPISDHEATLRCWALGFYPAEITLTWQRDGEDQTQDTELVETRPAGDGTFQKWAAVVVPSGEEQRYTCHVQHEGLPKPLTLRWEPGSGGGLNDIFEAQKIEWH” the “soluble on expression in E. coli” value was “soluble”. With “GSKFLNKRLSEREFDPDIHCGVIDLDTKKPCTRSLTCKTHSLTQRRAVQGRRKRFDVLLAEHKNKTREKELIRH” the “soluble on expression in E. coli” value was “soluble”. With “GSKVVKFSYMWTINNFSFCREEMGEVIKSSTFSSGANDKLKWCLRVNPKGLDEESKDYLSLYLLLVSCPKSEVRAKFKFSILNAKGEETKAMESQRAYRFVQGKDWGFKKFIRRGFLLDEANGLLPDDKLTLFCEVSVVQDSVNISGQNTMNMVKVPECRLADELGGLWENSRFTDCCLCVAGQEFQAHKAILAARSPVFSAMFEHEMEESKKNRVEINDVEPEVFKEMMCFIYTGKAPNLDKMADDLLAAADKYALERLKVMCEDALCSNLSVENAAEILILADLHSADQLKTQAVDFINYHATDVLETSG” the “soluble on expression in E. coli” value was “soluble”. With GSLHRVPLRRHPSLKKKLRARSQLSEFWKSHNLDM the “soluble on expression in E. coli” value was “soluble”. With GSLLKPARFMCLPCGIAFSSPSTLEAHQAYYCSHRI the “soluble on expression in E. coli” value was “soluble”. In the case of “GSLSRLSYKSNNNSFVLGIGISVPGEPISQQSLKDSISNDFSDKAETNEKVKRIFEQSQIKTRHLVRDYTKPENSIKFRHLETITDVNNQFKKVVPDLAQQACLRALKDWGGDKGDITHIVSVTSTGIIIPDVNFKLIDLLGLNKDVERVSLNLMGCLAGLSSLRTAASLAKASPRNRILVVCTEVCSLHFSNTDGGDQMVASSIFADGSAAYIIGCNPRIEETPLYEVMCSINRSFPNTENAMVWDLEKEGWNLGLDASIPIVIGSGIEAFVDTLLDKAKLQTSTAISAKDCEFLIHTGGKSILMNIENSLGIDPKQTKNTWDVYHAYGNMSSASVIFVMDHARKSKSLPTYSISLAFGPGLAFEGCFLKNVV”, the “soluble on expression in E. coli” value is reported as “soluble”. With “GSMFPHHSITESVNYDVKTFGSSLPVKVMEALTLAEVDDQLTINIDEGGWACLVCKEKLIIWKIALSPITKLSVCKELQLPPSDFHWSADLVALSYSSPSGEAHSTQAVAVMVATREGSIRYWPSLAGEDTYTEAFVDSGGDKTYSFLTAVQGGSFILSSSGSQLIRLIPESSGKIHQHILPQGQGMLSGIGRKVSSLFGILSPSSDLTLSSVLWDRERSSFYSLTSSNISKWELDDSSEKHAYSWDINRALKENITDAIWGSESNYEAIKEGVNIRYLDLKQNCDGLVILAAAWHSADNPCLIYYSLITIEDNGCQMSDAVTVEVTQYNPPFQSEDLILCQLTVPNFSNQTAYLYNESAVYVCSTGTGKFSLPQEKIVFNAQGDSVLGAGACGGVPIIFSRNSGLVSITSRENVSILAEDLEGSLASSVAGPNSESMIFETTTKNETIA” the “soluble on expression in E. coli” value was “soluble”. For “GSPEKILAQIIQEHREGLDWQEAATRASLSLEETRKLLQSMAAAGQVTLLRVENDLYAISTERYQAWWQAVTRALEEFHSRYPLRPGLAREELRSRYFSRLPARVYQALLEEWSREGRLQLAANTVALAGFTPSFSETQKKLLKDLEDKYRVSRWQPPWVKEVAGSFNLDPSELEELLHYLVREGVLVKINDEFYWHRQALGEAREVIKNLASTGPFGLAEARDALGSSRKYVLPLLEYLDQVKFTRRVGDKRVVVGN”, the “soluble on expression in E. coli” value was “soluble”. For “GSPPAQLSVHTVSWNSGHERAPTNLEELLGLNSGETPDVIAVAVQGFGFQTDKPQQGPACVKNFQSLLTSKGYTKLKNTITETMGLTVYCLEKHLDQNTLKNETIIVTVDDQKKSGGIVTSFTIYNKRFSFTTSRMSDEDVTSTNTKYAYDTRLDYSKKDDPSDFLFWIGDLNVRVETNATHAKSLVDQNNIDGLMAFDQLKKAKEQKLFDGWTEPQVTFKPTYKFKPNTDEYDLSATPSWTDRALYKSGTGKTIQPLSYNSLTNYKQTEHRPVLAKFRVTL”, the “soluble on expression in E. coli” value was “soluble”. With “GSPREKVAMEYLQSASRVLTRSQLRDVVASSHLLQSEFMEIPMNFVDPKEIDIPRHGTKNRYKTILPNPLSRVCLRPKNITDSLSTYINANYIRGYSGKEKAFIATQGPMINTVNDFWQMVWQEDSPVIVMITKLKEKNEKCVLYWPEKRGIYGKVEVLVTGVTECDNYTIRNLVLKQGSHTQHVKHYWYTSWPDHKTPDSAQPLLQLMLDVEEDRLASEGRGPVVVHCSAGIGRTGCFIATSIGCQQLKEEGVVDALSIVCQLRVDRGGMVQTSEQYEFVHHALCLFESRLSPETV” the “soluble on expression in E. coli” value was “soluble”. With “GSRNPNKLDINTLTGEERVPVVNKRNGKKMGGAMAPPMKDLPRWLEENPEFAVAPDWTDIVKQSGFVPESMFDRLLTGPVVRGEGAS” the “soluble on expression in E. coli” value was “soluble”.
